Reference: article PMC7536395
Where a chain is given by its changes, count along the chain named.

Legend:
[1] = target: T1, endogenous mouse GIPR (mouse (endogenous in primary mouse adipocytes and Neuro-2a cells)) (UniProt Q0P543)
T1 sequence: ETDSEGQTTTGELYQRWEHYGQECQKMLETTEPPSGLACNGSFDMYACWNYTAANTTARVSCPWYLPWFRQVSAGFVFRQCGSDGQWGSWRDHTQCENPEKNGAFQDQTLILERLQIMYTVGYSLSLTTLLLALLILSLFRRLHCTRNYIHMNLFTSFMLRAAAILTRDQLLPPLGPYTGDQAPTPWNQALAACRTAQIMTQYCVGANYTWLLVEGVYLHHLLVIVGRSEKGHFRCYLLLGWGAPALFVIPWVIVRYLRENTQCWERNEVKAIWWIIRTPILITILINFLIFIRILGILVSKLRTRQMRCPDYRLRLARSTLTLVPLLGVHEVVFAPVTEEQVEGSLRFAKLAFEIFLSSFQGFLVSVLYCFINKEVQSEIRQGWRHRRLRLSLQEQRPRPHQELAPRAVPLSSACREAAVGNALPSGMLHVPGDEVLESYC

[2] = target: T1, endogenous mouse GIPR (mouse (endogenous in primary mouse adipocytes and Neuro-2a cells)); remark: listed apart in the source
[3] = target: T2, endogenous rat GIPR in INS1 832/13 cells (rat (endogenous in INS1 832/13)) (UniProt P43219)
T2 sequence: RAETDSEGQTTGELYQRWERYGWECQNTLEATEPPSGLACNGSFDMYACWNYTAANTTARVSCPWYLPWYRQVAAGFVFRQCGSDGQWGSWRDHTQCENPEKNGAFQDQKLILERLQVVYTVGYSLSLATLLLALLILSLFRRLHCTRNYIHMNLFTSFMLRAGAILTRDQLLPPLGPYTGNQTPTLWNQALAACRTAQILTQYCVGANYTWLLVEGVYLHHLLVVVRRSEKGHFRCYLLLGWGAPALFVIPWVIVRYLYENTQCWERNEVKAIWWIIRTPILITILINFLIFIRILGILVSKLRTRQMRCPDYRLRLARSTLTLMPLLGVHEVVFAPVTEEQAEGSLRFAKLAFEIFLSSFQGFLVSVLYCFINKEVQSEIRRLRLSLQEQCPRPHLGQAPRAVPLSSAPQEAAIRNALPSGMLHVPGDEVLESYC

B1: mouse GIP (ligand)
peptide: YAEGTFISDYSIAMDKIRQQDFVNWLLAQRGKKSDWKHNITQ
- EC50 of cAMP production in mouse primary adipocytes differentiated in vitro [1]: 3.8 nM
- EC50 of glycerol release (lipolysis) from primary mouse adipocytes differentiated in vitro [1]: 13 nM
- EC50 of cAMP production in mouse Neuro-2a neuroblastoma cells [2]: 6.35 nM

B2: rat GIP (ligand)
peptide: B1 peptide with R30K, S34N, I40L
- EC50 of cAMP production in rat INS1 832/13 cells [3]: 0.99 nM
